Results from patent publication US20160039883A1 (AstraZeneca / MedImmune, published 2016).

What was measured:
[1] = target: RSV fusion (F) protein on RSV virus (respiratory syncytial virus, UniProt P03420 26-574); experiment: cell-based or functional assay
[2] = target: VLP059; experiment: ELISA, VLP-coated wells, 0.5 µg/ml palivizumab, OD relative to sF-coated wells
[3] = target: VLP097; experiment: as above
[4] = target: VLP098; experiment: as above
[5] = target: VLP099; experiment: as above
[6] = target: VLP019; experiment: as above

B1: palivizumab (antibody, V domains shown)
VH: QVTLRESGPALVKPTQTLTLTCTFSGFSLSTSGMSVGWIRQPPGKALEWLADIWWDDKKDYNPSLKSRLTISKDTSKNQVVLKVTNMDPADTATYYCARSMITNWYFDVWGAGTTVTVSS
VL: DIQMTQSPSTLSASVGDRVTITCKCQLSVGYMHWYQQKPGKAPKLLIYDTSKLASGVPSRFSGSGSGTEFTLTISSLQPDDFATYYCFQGSGYPFTFGGGTKLEIK
B1 was tested, and the “PRNT as measured by the IC50 point” value [1] was ~0.5 µg/mL, the “Palivizumab binding in vitro (sF = 100%)” value [2] was 83% and the “Palivizumab binding in vitro (sF = 100%)” value [3] was 112%. The “Palivizumab binding in vitro (sF = 100%)” value [4] was 47%, the “Palivizumab binding in vitro (sF = 100%)” value [5] was 95% and the “Palivizumab binding in vitro (sF = 100%)” value [6] was 100%.
